Results: the supplement of paper PMC7125110
± gives the standard error. For some of these results: Fewer inactive variants are shown than the library holds.

B1: glmS ribozyme (parent)
chain: AUAAAAGCGCCAGAACUACAGAAAUGUAGUUGACGAGGAGGAGGUUUAUCGAAUUUUCGGCGGAUGCCUCCAAA

How the values were obtained:
Settings in all cases: with glucosamine-6-phosphate
glucosamine-6-phosphate [1] = variants of: B1; experiment: kcat; higher = faster cleavage; RNA array
In short: (§1)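 Weighted Michaelis–Menten fits across concentrations supplied kcat and KM, based on kobs from one- or two-exponential decay fits to normalised per-tile medians. The data came from barcoded ribozyme variants transcribed in situ by E. coli RNA polymerase on sequenced MiSeq chips and tracked at 37 °C by a hybridised Cy3 probe. Glucosamine-6-phosphate (40 μM to 10 mM) in HEPES/KCl/Mg(OAc)2 buffer was flowed in.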

glucosamine-6-phosphate [2] = variants of: B1; experiment: KM; higher = weaker cofactor use; RNA array
In short: as §1

glucosamine-6-phosphate [3] = variants of: B1; experiment: self-cleavage kobs at 40 uM GlcN6P; higher = faster cleavage; RNA array
In short: as §1

glucosamine-6-phosphate [4] = variants of: B1; experiment: self-cleavage kobs at 160 uM GlcN6P; higher = faster cleavage; RNA array
In short: as §1

glucosamine-6-phosphate [5] = variants of: B1; experiment: self-cleavage kobs at 640 uM GlcN6P; higher = faster cleavage; RNA array
In short: as §1

glucosamine-6-phosphate [6] = variants of: B1; experiment: self-cleavage kobs at 2500 uM GlcN6P; higher = faster cleavage; RNA array
In short: as §1

glucosamine-6-phosphate [7] = variants of: B1; experiment: self-cleavage kobs at 10000 uM GlcN6P; higher = faster cleavage; RNA array
In short: as §1

Variant	kcat (glucosamine-6-phosphate [1]) [s⁻¹]	KM (glucosamine-6-phosphate [2]) [µM]	self-cleavage kobs at 40 uM GlcN6P (glucosamine-6-phosphate [3]) [s⁻¹]	self-cleavage kobs at 160 uM GlcN6P (glucosamine-6-phosphate [4]) [s⁻¹]	self-cleavage kobs at 640 uM GlcN6P (glucosamine-6-phosphate [5]) [s⁻¹]	self-cleavage kobs at 2500 uM GlcN6P (glucosamine-6-phosphate [6]) [s⁻¹]	self-cleavage kobs at 10000 uM GlcN6P (glucosamine-6-phosphate [7]) [s⁻¹]
A12C U46C	0.00298 ± 0.0008	1680 ± 590	7.98e-05 ± 1.5e-05	0.000265 ± 5.1e-05	0.000606 ± 0.00017	0.00273 ± 0.00089	0.0026 ± 0.00058
A12G A53U C67U	0.000372 ± 8.2e-05	6210 ± 2000				0.00011 ± 1.7e-05	0.00022 ± 7.2e-05
U54A C70A	0.000115 ± 1.2e-05	42.6 ± 17	5.92e-05 ± 7.9e-06	7.42e-05 ± 1.3e-05	0.000107 ± 1.4e-05	0.000122 ± 1.5e-05	
A14C G40A	0.00106 ± 0.00042		3.61e-05 ± 8.7e-06	8.2e-05 ± 1.6e-05	0.000371 ± 5.8e-05	0.000306 ± 8.2e-05	0.00112 ± 0.00011
A6C C70A	1.39e-05 ± 2.5e-06						
G13U G41A	5.17e-05 ± 3.4e-06	3540 ± 600				2.17e-05 ± 8.2e-06	3.81e-05 ± 9.2e-06
A48U C50G G59U G66U	1.53e-05 ± 4.3e-06			< 1e-05			
C16G C71G	0.000131 ± 1.2e-05	303 ± 130		6.73e-05 ± 2.1e-05	8e-05 ± 1.3e-05	0.000114 ± 1.3e-05	0.00014 ± 1.8e-05
G13U A42G U45A	0.00154 ± 0.00051				0.000169 ± 6.2e-05	0.000951 ± 0.00031	0.00104 ± 0.00021
A33C G66U	2.18e-05 ± 4.2e-07	2420 ± 190	< 1e-05				
C50U A53C U54G	1.06e-05 ± 9.8e-07						< 1e-05
U46A U55A	0.00375 ± 0.001	2140 ± 820	5.91e-05 ± 1.3e-05	0.00063 ± 0.00021	0.00107 ± 0.00026	0.00221 ± 0.00094	0.00298 ± 0.00056
C16G A64C	2.1e-05 ± 1.7e-06	9060 ± 1500					
G59U U69A	1.61e-05 ± 5.1e-06						
U46G U65A	0.00378 ± 0.00067	2420 ± 650	8.18e-05 ± 1.7e-05	0.000198 ± 4.8e-05	0.000703 ± 0.00015	0.00212 ± 0.00033	0.00296 ± 0.00047
U30G A53C	0.00231 ± 0.0004	2690 ± 910		0.000159 ± 6.4e-05	0.000512 ± 0.0001	0.00138 ± 0.00034	0.00177 ± 0.00022
A33U G51A	< 1e-05	394 ± 130	< 1e-05				
C16A U69A	3.39e-05 ± 9e-06					4.42e-05 ± 1.3e-05	
